This note sets out measurements from the Human Domainome abundance scans (Beltran et al. 2025).

± gives the uncertainty stated by the source.

The labels stand for the following.
B1: Unconventional myosin-Ie, residues 1051 to 1108; numbered along this chain, Q12965 (parent)
chain: PQVPQCKALYAYDAQDTDELSFNANDIIDIIKEDPSGWWTGRLRGKQGLFPNNYVTKI

In this data set the parent is B1. Put plainly: abundance fitness (aPCA) (normalised: wild type 0, dead -1); higher = more abundant; growth selection in yeast, the domain comes from the species named. The conditions noted are these: Homo sapiens.
As to PQVPQGKALYAYDAQDTDELSFNANDIIDIIKEDPSGWWTGRLRGKQGLFPNNYVTKI [C6G], the abundance fitness stood at 0 ± 0.041. Next, PQVPQDKALYAYDAQDTDELSFNANDIIDIIKEDPSGWWTGRLRGKQGLFPNNYVTKI [C6D]: -0.807 ± 0.12; PQVPQRKALYAYDAQDTDELSFNANDIIDIIKEDPSGWWTGRLRGKQGLFPNNYVTKI [C6R]: -0.818 ± 0.051; PQVPQMKALYAYDAQDTDELSFNANDIIDIIKEDPSGWWTGRLRGKQGLFPNNYVTKI [C6M]: -0.172 ± 0.12.

PQVPQIKALYAYDAQDTDELSFNANDIIDIIKEDPSGWWTGRLRGKQGLFPNNYVTKI [C6I]: the abundance fitness is -0.67 ± 0.46.

Regarding PQVPQSKALYAYDAQDTDELSFNANDIIDIIKEDPSGWWTGRLRGKQGLFPNNYVTKI [C6S], the abundance fitness is -0.448 ± 0.085.

For PQVPQLKALYAYDAQDTDELSFNANDIIDIIKEDPSGWWTGRLRGKQGLFPNNYVTKI [C6L], the abundance fitness was -0.866 ± 0.069.

Consider PQVPQAKALYAYDAQDTDELSFNANDIIDIIKEDPSGWWTGRLRGKQGLFPNNYVTKI [C6A], for which the abundance fitness came to 0.097 ± 0.035. Turning to PQVPQKKALYAYDAQDTDELSFNANDIIDIIKEDPSGWWTGRLRGKQGLFPNNYVTKI [C6K], the abundance fitness was -1 ± 0.18. Next, PQVPQTKALYAYDAQDTDELSFNANDIIDIIKEDPSGWWTGRLRGKQGLFPNNYVTKI [C6T]: -0.768 ± 0.14; PQVPQWKALYAYDAQDTDELSFNANDIIDIIKEDPSGWWTGRLRGKQGLFPNNYVTKI [C6W]: -0.571 ± 0.072; PQVPQPKALYAYDAQDTDELSFNANDIIDIIKEDPSGWWTGRLRGKQGLFPNNYVTKI [C6P]: -0.96 ± 0.31. With PQVPQVKALYAYDAQDTDELSFNANDIIDIIKEDPSGWWTGRLRGKQGLFPNNYVTKI [C6V], the abundance fitness is -0.001 ± 0.043. Take PQVPQHKALYAYDAQDTDELSFNANDIIDIIKEDPSGWWTGRLRGKQGLFPNNYVTKI [C6H]: the abundance fitness was -0.839 ± 0.17. Next, PQVPQCDALYAYDAQDTDELSFNANDIIDIIKEDPSGWWTGRLRGKQGLFPNNYVTKI [K7D]: -1.02 ± 0.1; PQVPQCHALYAYDAQDTDELSFNANDIIDIIKEDPSGWWTGRLRGKQGLFPNNYVTKI [K7H]: -0.122 ± 0.041. For PQVPQCPALYAYDAQDTDELSFNANDIIDIIKEDPSGWWTGRLRGKQGLFPNNYVTKI [K7P], the abundance fitness was -0.945 ± 0.064.

Take PQVPQCEALYAYDAQDTDELSFNANDIIDIIKEDPSGWWTGRLRGKQGLFPNNYVTKI [K7E]: the abundance fitness is -0.264 ± 0.069. For PQVPQCQALYAYDAQDTDELSFNANDIIDIIKEDPSGWWTGRLRGKQGLFPNNYVTKI [K7Q], the abundance fitness was -0.287 ± 0.092. Next, PQVPQCMALYAYDAQDTDELSFNANDIIDIIKEDPSGWWTGRLRGKQGLFPNNYVTKI [K7M]: -0.092 ± 0.053; PQVPQCYALYAYDAQDTDELSFNANDIIDIIKEDPSGWWTGRLRGKQGLFPNNYVTKI [K7Y]: -0.074 ± 0.045. Next, PQVPQCGALYAYDAQDTDELSFNANDIIDIIKEDPSGWWTGRLRGKQGLFPNNYVTKI [K7G]: -0.943 ± 0.091; PQVPQCTALYAYDAQDTDELSFNANDIIDIIKEDPSGWWTGRLRGKQGLFPNNYVTKI [K7T]: -0.049 ± 0.069; PQVPQCAALYAYDAQDTDELSFNANDIIDIIKEDPSGWWTGRLRGKQGLFPNNYVTKI [K7A]: -0.137 ± 0.053. Next, PQVPQCFALYAYDAQDTDELSFNANDIIDIIKEDPSGWWTGRLRGKQGLFPNNYVTKI [K7F]: -0.267 ± 0.054; PQVPQCLALYAYDAQDTDELSFNANDIIDIIKEDPSGWWTGRLRGKQGLFPNNYVTKI [K7L]: -0.106 ± 0.052; PQVPQCIALYAYDAQDTDELSFNANDIIDIIKEDPSGWWTGRLRGKQGLFPNNYVTKI [K7I]: 0.004 ± 0.075. With PQVPQCNALYAYDAQDTDELSFNANDIIDIIKEDPSGWWTGRLRGKQGLFPNNYVTKI [K7N], the abundance fitness was -0.647 ± 0.2. Next, PQVPQCCALYAYDAQDTDELSFNANDIIDIIKEDPSGWWTGRLRGKQGLFPNNYVTKI [K7C]: -0.028 ± 0.072; PQVPQCRALYAYDAQDTDELSFNANDIIDIIKEDPSGWWTGRLRGKQGLFPNNYVTKI [K7R]: -0.114 ± 0.04; PQVPQCSALYAYDAQDTDELSFNANDIIDIIKEDPSGWWTGRLRGKQGLFPNNYVTKI [K7S]: -0.167 ± 0.055. Next, PQVPQCVALYAYDAQDTDELSFNANDIIDIIKEDPSGWWTGRLRGKQGLFPNNYVTKI [K7V]: -0.057 ± 0.042; PQVPQCWALYAYDAQDTDELSFNANDIIDIIKEDPSGWWTGRLRGKQGLFPNNYVTKI [K7W]: -0.26 ± 0.066; PQVPSCKALYAYDAQDTDELSFNANDIIDIIKEDPSGWWTGRLRGKQGLFPNNYVTKI [Q5S]: -0.065 ± 0.044. For the variant PQVPVCKALYAYDAQDTDELSFNANDIIDIIKEDPSGWWTGRLRGKQGLFPNNYVTKI [Q5V], the abundance fitness is -0.065 ± 0.043. Next, PQVPNCKALYAYDAQDTDELSFNANDIIDIIKEDPSGWWTGRLRGKQGLFPNNYVTKI [Q5N]: -0.062 ± 0.31; PQVPYCKALYAYDAQDTDELSFNANDIIDIIKEDPSGWWTGRLRGKQGLFPNNYVTKI [Q5Y]: -0.007 ± 0.13; PQVPRCKALYAYDAQDTDELSFNANDIIDIIKEDPSGWWTGRLRGKQGLFPNNYVTKI [Q5R]: 0.023 ± 0.039. Next, PQVPMCKALYAYDAQDTDELSFNANDIIDIIKEDPSGWWTGRLRGKQGLFPNNYVTKI [Q5M]: -0.041 ± 0.074. As for PQVPICKALYAYDAQDTDELSFNANDIIDIIKEDPSGWWTGRLRGKQGLFPNNYVTKI [Q5I], the abundance fitness was -0.072 ± 0.18. Next, PQVPWCKALYAYDAQDTDELSFNANDIIDIIKEDPSGWWTGRLRGKQGLFPNNYVTKI [Q5W]: -0.281 ± 0.063; PQVPPCKALYAYDAQDTDELSFNANDIIDIIKEDPSGWWTGRLRGKQGLFPNNYVTKI [Q5P]: -0.739 ± 0.051; PQVPTCKALYAYDAQDTDELSFNANDIIDIIKEDPSGWWTGRLRGKQGLFPNNYVTKI [Q5T]: 0.01 ± 0.047.

Consider PQVPLCKALYAYDAQDTDELSFNANDIIDIIKEDPSGWWTGRLRGKQGLFPNNYVTKI [Q5L], for which the abundance fitness was -0.135 ± 0.044. Regarding PQVPKCKALYAYDAQDTDELSFNANDIIDIIKEDPSGWWTGRLRGKQGLFPNNYVTKI [Q5K], the abundance fitness was -0.075 ± 0.088. PQVPQCKCLYAYDAQDTDELSFNANDIIDIIKEDPSGWWTGRLRGKQGLFPNNYVTKI [A8C]: the abundance fitness is -0.196 ± 0.13.
